# Experimental data taken from patent US20230340123A1 (published 2023).
# What was measured:
# human BTLA-human Fc = biological target: T1, human BTLA-human Fc (human, UniProt Q7Z6A9 31-151, limits assumed); experiment: blocking ELISA: BTLA-human Fc binding to coated human HVEM-ratIgG2a
# T1 construct: not shown: human Fc
# cynomolgus BTLA(ECD)-HIS = biological target: T2, cynomolgus BTLA(ECD)-HIS (cynomolgus, UniProt A0A2K5W7M7 31-157); experiment: ELISA, BTLA(ECD)-HIS coated, chemiluminescence (RLU)
# T2 construct: extracellular domain; also called Cyno BTLA; not shown: HIS tag
# human BTLA(ECD)-HIS = biological target: T3, human BTLA(ECD)-HIS (human, UniProt Q7Z6A9 31-157); experiment: as above
# T3 construct: extracellular domain; not shown: HIS tag
# recombinant human BTLA = recombinant human BTLA (human, UniProt Q7Z6A9 31-151, limits assumed); experiment: Bio-Layer Interferometry (Octet), antibody captured by anti-human-Fc, BTLA in solution, 1:1 model
# [1] = biological target: T4, cynomolgus BTLA (analyte in Bio-Layer Interferometry) (cynomolgus, UniProt A0A2K5W7M7 31-151); experiment: as above
# T4 construct: also called Cyno BTLA
# cynoBTLA-human Fc = biological target: T5, cynoBTLA-human Fc (cynomolgus, UniProt A0A2K5W7M7 31-151); experiment: blocking ELISA: cynoBTLA-human Fc binding to coated human HVEM-ratIgG2a
# T5 construct: not shown: human Fc
# [2] = biological target: T6, human BTLA expressed on HEK-293 cells (human, UniProt Q7Z6A9 31-289); experiment: flow cytometry (MFI) on HEK 293 cells expressing BTLA
# T6 construct: whole, on cells
# [3] = biological target: T7, cynomolgus BTLA expressed on HEK-293 cells (cynomolgus, UniProt A0A2K5W7M7 31-289); experiment: as above
# T7 construct: whole, on cells; also called Cyno BTLA
# T7 sequence (A0A2K5W7M7 entry or part of it): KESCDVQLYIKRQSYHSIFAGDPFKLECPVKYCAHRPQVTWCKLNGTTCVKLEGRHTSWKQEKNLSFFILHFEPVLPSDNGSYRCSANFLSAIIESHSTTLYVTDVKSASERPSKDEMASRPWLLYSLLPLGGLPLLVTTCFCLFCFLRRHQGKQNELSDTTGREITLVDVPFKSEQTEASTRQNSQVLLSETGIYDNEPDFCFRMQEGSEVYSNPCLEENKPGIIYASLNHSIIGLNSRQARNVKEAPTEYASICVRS
# T5 sequence (A0A2K5W7M7 entry or part of it): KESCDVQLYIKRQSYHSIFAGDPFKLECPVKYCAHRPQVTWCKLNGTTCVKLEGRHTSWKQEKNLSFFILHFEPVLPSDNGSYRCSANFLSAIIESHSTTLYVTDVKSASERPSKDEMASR
# T2 sequence (A0A2K5W7M7 entry or part of it): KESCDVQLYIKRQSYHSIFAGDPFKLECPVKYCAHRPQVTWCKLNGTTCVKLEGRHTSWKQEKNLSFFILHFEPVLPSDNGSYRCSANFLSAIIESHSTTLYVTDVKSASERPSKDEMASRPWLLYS
binder,measurement,setting,value
"anti-BTLA antibody 15-C19A (antibody, V domains shown) VH: QVQLQESGPGLVKPSETLSLTCTVSGGSISSYYWSWIRQPPGKGLEWIGYISYSGSTNYNPSLKSRVTISADTSKNQFSLKLSSVTAADTAVYYCARDFYYGMDVWGQGTTVTVSS VL: AIQLTQSPSSLSASVGDRVTITCRASQGISSALAWYQQKPGKAPKLLIYDASSLESGVPSRFSGSGSGTDFTLTISSLQPEDFATYYCHQFDYYPTFGGGTKVEIK",IC50,human BTLA-human Fc,3.5 nM
same,EC50,cynomolgus BTLA(ECD)-HIS,1.4 nM
same,EC50,human BTLA(ECD)-HIS,0.8 nM
same,Kd,recombinant human BTLA,144 nM
same,Kd,[1],0.1 nM
same,IC50,cynoBTLA-human Fc,2.4 nM
same,EC50,[2],5.5 nM
same,EC50,[3],4.4 nM
